{"source": "paper PMC5228053", "molecular_target": "pyruvate kinase type M2 (PKM2) (human (endogenous in A549)) (UniProt P14618)", "assay": "cross-linking; A549 cells in PBS (2 mg/ml protein), EDC 10 mM / sulfo-NHS 5 mM, room temperature, quenched with 20 mM DTT, then western blot for PKM2; cells treated with pTyr peptide, FBP or serine", "data": [{"substance": "pyruvate kinase type M2 (PKM2), P14618 1-531 (enzyme; other documents disagree on this pair)", "values": [{"measurement": "stoichiometry N", "result": 2}]}]}
